IC50 data for seven molecules are collected here from PMC3417467.

Assay in all cases: competitive cell adhesion assay
The target of experiment [1] is integrins on WM-115 cells (mainly integrin α5β1, αVβ3, and αVβ5).
Experiment [2] has the same target. This is another data set of the same source.
Experiment [3] shares this target. This is another data set of the same source.
For experiment [4] the target is unchanged. This is another data set of the same source.
The target is the same in experiment [5]. The source holds these as a separate data set.
For experiment [6] the target is unchanged. The source holds these as a separate data set.

Read-outs that look alike come from different tables or passages of the source.

B1: cyclopeptide-4 c-(-FEAnE-) (peptide)
peptide: FEANE
HELM: PEPTIDE1{F.E.A.[dN].E}$PEPTIDE1,PEPTIDE1,1:R1-5:R2$$$V2.0
SMILES: C[C@@H]1NC(=O)[C@H](CCC(=O)O)NC(=O)[C@H](Cc2ccccc2)NC(=O)[C@H](CCC(=O)O)NC(=O)[C@@H](CC(N)=O)NC1=O
B1: the IC50 in experiment [1], in experiment [2] and in experiment [3] was more than 1000 µM in each case.

B2: cyclopeptide-7 c-(-RGDlA-) (peptide)
peptide: RGDLA
HELM: PEPTIDE1{R.G.D.[dL].A}$PEPTIDE1,PEPTIDE1,1:R1-5:R2$$$V2.0
SMILES: CC(C)C[C@H]1NC(=O)[C@H](CC(=O)O)NC(=O)CNC(=O)[C@H](CCCNC(=N)N)NC(=O)[C@H](C)NC1=O
As to B2, the IC50 in experiment [4] was determined as 0.88 µM; in experiment [5], 1.65 µM; in experiment [6] it was 0.67 µM; in experiment [3], 2.39 µM.
For ANFEANELFFISEDV [linear peptide 6 (…)], the IC50 was 239 µM in experiment [1], 9 µM in experiment [2] and more than 1000 µM in experiment [3].

B3: cyclopeptide-1 c-(-fEANE-) (peptide)
peptide: FEANE
HELM: PEPTIDE1{[dF].E.A.N.E}$PEPTIDE1,PEPTIDE1,1:R1-5:R2$$$V2.0
SMILES: C[C@@H]1NC(=O)[C@H](CCC(=O)O)NC(=O)[C@@H](Cc2ccccc2)NC(=O)[C@H](CCC(=O)O)NC(=O)[C@H](CC(N)=O)NC1=O
Consider B3, for which the IC50 is more than 1000 µM in experiment [1], 43 to 340 µM in experiment [2] and more than 1000 µM in experiment [3].

B4: cyclopeptide-2 c-(-FeANE-) (peptide)
peptide: FEANE
HELM: PEPTIDE1{F.[dE].A.N.E}$PEPTIDE1,PEPTIDE1,1:R1-5:R2$$$V2.0
SMILES: C[C@@H]1NC(=O)[C@@H](CCC(=O)O)NC(=O)[C@H](Cc2ccccc2)NC(=O)[C@H](CCC(=O)O)NC(=O)[C@H](CC(N)=O)NC1=O
Turning to B4, the IC50 in experiment [1] is 54 to 430 µM; in experiment [2], 30 to 530 µM; in experiment [3], more than 1000 µM.

B5: cyclopeptide-5 c-(-FEANe-) (peptide)
peptide: FEANE
HELM: PEPTIDE1{F.E.A.N.[dE]}$PEPTIDE1,PEPTIDE1,1:R1-5:R2$$$V2.0
SMILES: C[C@@H]1NC(=O)[C@H](CCC(=O)O)NC(=O)[C@H](Cc2ccccc2)NC(=O)[C@@H](CCC(=O)O)NC(=O)[C@H](CC(N)=O)NC1=O
Regarding B5, the IC50 in experiment [1], in experiment [2] and in experiment [3] was more than 1000 µM throughout.

B6: cyclopeptide-3 c-(-FEaNE-) (peptide)
peptide: FEANE
HELM: PEPTIDE1{F.E.[dA].N.E}$PEPTIDE1,PEPTIDE1,1:R1-5:R2$$$V2.0
SMILES: C[C@H]1NC(=O)[C@H](CCC(=O)O)NC(=O)[C@H](Cc2ccccc2)NC(=O)[C@H](CCC(=O)O)NC(=O)[C@H](CC(N)=O)NC1=O
Consider B6, for which the IC50 in experiment [1], in experiment [2] and in experiment [3] was more than 1000 µM throughout.

The IC50 is the concentration at which inhibition is half-maximal. A higher IC50 goes with weaker potency.
